Assay [1] addresses T1, human FGFR2IIIb-Fc (alpha form, entire ECD amino acids 1-378 fused to human Fc) (human, UniProt P21802-3 22-378).
T1 construct: range 1-378; Secreted from 293F cells and purified on protein A/G; not shown: human Fc, residues 216 to 446
In words: estimate from the 50% inhibition point of the competition ELISA on FGFR2IIIb-Fc against biotinylated GAL-FR21. The protocol:
To compare the binding affinity of HuGAL-FR21 with that of the mouse mAb GAL-FR21, a competitive binding experiment was performed using standard ELISA technology. Specifically, ELISA wells were coated with 2 μg/ml of goat anti-human IgG-Fc overnight at 4° C. After blocking with 2% BSA for 1 hr at RT, the wells were incubated with 0.5 μg/ml of FGFR2IIIb-Fc. The wells were then incubated with biotinylated GAL-FR21 mAb (0.05 μg/ml) in the presence of increasing concentrations of unlabeled GAL-FR21, HuGAL-FR21 or control human antibody hIgG. The level of biotinylated GAL-FR21 bound was determined by the addition of HRP-streptavidin and substrate. […] HuGAL-FR21 may also be tested in any of the biological assays for FGFR2 activity described herein, e.g., inhibition of binding of FGF2 or FGF7 to FGFR2, and will inhibit FGFR2 activity comparably to GAL-FR21.

Assay [2] has as its target T2, FGFR2IIIb on KATO-III and SNU-16 human gastric tumor cells (human, UniProt P21802-3 22-822).
T2 construct: whole, on cells; Endogenous receptor of human tumor cell lines; also called FGFR2IIIb on the cell membrane
Kind of assay: flow cytometry on KATO-III and SNU-16 cells overexpressing FGFR2IIIb. On the procedure:
(§1) Flow cytometry. After washing twice in cell sorting buffer (CSB: PBS/1% FBS/0.02% NaN_3), 2×10^5 cells were resuspended in 50 µl of CSB in a microtiter well and incubated with 50 µl of the anti-FGFR2 mAb to be tested (1 µg/50 µl) for 1 hr on ice. Cells were then washed twice in CSB and the bound antibodies detected by incubation with FITC-goat anti-mouse IgG (Jackson ImmunoResearch Laboratories) for 1 hr on ice. After washing twice in CSB, cells were analyzed on a FACScan (Becton Dickinson).
(§2) To confirm that the selected mAbs bind to the appropriate forms of FGFR2 on the cell membrane, flow cytometry was employed. KATO-III (ATCC HTB-103) and SNU-16 (ATCC CRL-5974) cells, which overexpress FGFR2IIIb, were used to test binding to that form of the receptor. […] Human 293F cells transfected with a gene for FGFRIIIc were used to test binding to that form, after verifying that none of the mAbs bind to the host 293F cells themselves. […] Finally, since the S252W mutation of FGFR2 is found in some cancer cells, binding of the mAbs to 293F cells transfected with an FGFR2IIIb gene constructed to contain that mutation (FGFR2IIIb(S252W)) was tested. As also seen in FIG. 7, all the mAbs bound to the FGFR2IIIb(S252W)-transfected cells. The ability to bind FGFR2IIIb(S252W) is a preferred property of mAbs of the invention.

Assay [3] has as its target T3, human FGFR2(beta)IIIb-Fc (amino acids 152-378, missing D1, fused to human Fc) (human, UniProt P21802-3 152-378).
T3 construct: range 152-378; The signal peptide used for secretion of the beta form is not described; also called beta form of FGFR2IIIb; not shown: human Fc, residues 216 to 446
In words: ELISA on the four FGFR2-Fc forms, fixed mAb concentration. The protocol: ELISA assay for mAb binding to FGFR2 fusion protein. ELISA plates were coated with goat anti-human IgG-Fc (2 µg/ml) overnight at 4° C. Then nonspecific binding sites were blocked with 2% BSA for 1 hr at RT. Plates were incubated with one of the FGFR2 fusion proteins described above (1 µg/ml) for 1 hr, followed by incubation with various concentrations of mAbs or hybridoma culture fluids for 1 hr. The bound mAb was detected with HRP-Goat anti-mouse antibody followed by washing, addition of TMB substrate (Sigma) and reading at 450 nm. In all ELISA assays, plates were washed 3 times between each step.
Figure 3: FIG. 3. Binding ELISA of mAbs GAL-FR21, GAL-FR22 and GAL-FR23 and negative control mIgG to FGFR2IIIb. Figure 4: FIG. 4. Binding ELISA of mAbs GAL-FR21, GAL-FR22 and GAL-FR23 and negative control mouse mAb 5G8 to each of the four forms of FGFR2—FGFR2IIIb, FGFR2(beta)IIIb, FGFR2(IIIc) and FGFR2(beta)IIIc—as fusion proteins with Fc. A fixed concentration of each mAb was used in the assay.
For orientation: ELISA stands for enzyme-linked immunosorbent assay.

For assay [4], the target named is T1, human FGFR2IIIb-Fc (alpha form, entire …). Kind of assay: ELISA, FGFR2IIIb-Fc captured by anti-human IgG-Fc. The protocol: (§3) To determine the ability of the mAbs to bind to FGFR2 from species other than human, ELISA assays were used. ELISA wells were coated with 2 µg/ml of goat anti-human IgG-Fc overnight at 4° C. After blocking with 2% BSA for 1 hr at RT, the wells were incubated with 0.2 µg/ml of FGFR2IIIb-Fc for 1 hr, where the FGFRIIIb in the fusion protein was either human, mouse, cynomolgus monkey or chimpanzee FGFRIIIb. The wells were then incubated with various concentrations of GAL-FR21 or GAL-FR22 mAb. The bound mAbs were detected by addition of HRP-conjugated goat anti-mouse IgG-Fc and then TMB substrate. […] A similar experiment with chimpanzee FGFR2 gave the same results as with cynomolgus monkey FGFR2: GAL-FR21 bound to chimpanzee FGFR2 as well as (indistinguishably from) human FGFR2, while GAL-FR22 bound to chimpanzee FGFR2 moderately well (within about 100-fold of human FGFR2). […] Binding to FGFR2 from such other species makes testing of the mAbs in those animal species easier to conduct.

Assay [5] deals with T4, Chimpanzee FGFR2IIIb-Fc (human FGFR2IIIb ECD with residue 186 methionine to threonine, fused to human Fc) (chimpanzee; human, UniProt P21802-3 22-378).
T4 construct: range 1-378; Built from the human FGFR2IIIb-Fc construct; also called chimp FGFR2IIIb; not shown: human Fc, residues 216 to 446
In words: ELISA, FGFR2IIIb-Fc captured by anti-human IgG-Fc. The protocol:
as §3

Assay [6] addresses T5, FGFR2IIIb(S252W) on transfected human 293F cells (UniProt P21802-3 22-822).
T5 construct: whole, on cells
In words: flow cytometry on 293F cells transfected with FGFR2IIIb(S252W). On the procedure: as §1, §2
A general note: In flow cytometry, cells or beads pass a laser one at a time.

The target of assay [7] is T6, FGFR2IIIc on transfected human 293F cells (UniProt P21802 22-821).
T6 construct: whole, on cells; also called FGFRIIIc
Kind of assay: flow cytometry on 293F cells transfected with FGFRIIIc. On the procedure:
as §1, §2

T1 sequence (P21802 other isoform, or with tags, fused parts or gaps): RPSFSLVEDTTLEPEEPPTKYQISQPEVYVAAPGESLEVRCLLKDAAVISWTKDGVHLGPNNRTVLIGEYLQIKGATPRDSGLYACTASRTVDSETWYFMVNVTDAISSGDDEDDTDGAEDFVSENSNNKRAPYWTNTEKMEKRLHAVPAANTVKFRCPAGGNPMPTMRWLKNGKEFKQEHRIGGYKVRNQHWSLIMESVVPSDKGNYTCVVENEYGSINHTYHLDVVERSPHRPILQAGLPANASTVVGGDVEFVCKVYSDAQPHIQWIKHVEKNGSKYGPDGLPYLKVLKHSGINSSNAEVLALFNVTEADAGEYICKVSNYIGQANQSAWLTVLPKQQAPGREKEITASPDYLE
T4 sequence (P21802 other isoform, or with tags, fused parts or gaps): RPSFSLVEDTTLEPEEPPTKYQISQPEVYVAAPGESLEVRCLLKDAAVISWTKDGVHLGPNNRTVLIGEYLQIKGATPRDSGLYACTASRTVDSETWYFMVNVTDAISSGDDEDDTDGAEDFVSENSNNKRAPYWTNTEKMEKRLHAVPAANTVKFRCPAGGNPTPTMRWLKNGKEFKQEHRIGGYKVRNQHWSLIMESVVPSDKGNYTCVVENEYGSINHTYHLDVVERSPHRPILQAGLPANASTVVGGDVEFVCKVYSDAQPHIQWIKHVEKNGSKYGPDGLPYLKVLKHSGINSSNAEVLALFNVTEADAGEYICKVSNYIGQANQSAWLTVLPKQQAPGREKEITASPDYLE
T6 sequence (P21802 22-821): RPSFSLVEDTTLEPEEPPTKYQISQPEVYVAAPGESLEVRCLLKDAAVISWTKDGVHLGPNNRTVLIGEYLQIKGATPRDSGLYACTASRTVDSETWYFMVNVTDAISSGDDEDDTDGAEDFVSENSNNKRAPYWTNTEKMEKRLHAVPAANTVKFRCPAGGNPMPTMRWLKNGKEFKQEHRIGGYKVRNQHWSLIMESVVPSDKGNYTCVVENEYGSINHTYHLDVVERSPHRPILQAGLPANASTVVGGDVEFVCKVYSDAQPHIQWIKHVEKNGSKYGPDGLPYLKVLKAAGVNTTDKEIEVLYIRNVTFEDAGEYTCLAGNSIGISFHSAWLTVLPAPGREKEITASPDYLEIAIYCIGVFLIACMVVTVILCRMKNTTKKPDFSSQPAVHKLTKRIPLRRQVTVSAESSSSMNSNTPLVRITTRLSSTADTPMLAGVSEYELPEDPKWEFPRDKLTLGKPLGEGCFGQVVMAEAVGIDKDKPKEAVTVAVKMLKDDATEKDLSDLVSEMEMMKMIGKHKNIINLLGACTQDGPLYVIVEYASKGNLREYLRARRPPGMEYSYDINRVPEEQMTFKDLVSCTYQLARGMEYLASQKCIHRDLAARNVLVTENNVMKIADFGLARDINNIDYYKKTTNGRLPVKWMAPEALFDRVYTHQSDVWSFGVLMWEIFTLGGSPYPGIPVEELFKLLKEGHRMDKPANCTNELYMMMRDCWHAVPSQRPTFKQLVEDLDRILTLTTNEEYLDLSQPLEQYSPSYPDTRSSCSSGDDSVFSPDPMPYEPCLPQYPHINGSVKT
T3 sequence (P21802 other isoform, or with tags, fused parts or gaps): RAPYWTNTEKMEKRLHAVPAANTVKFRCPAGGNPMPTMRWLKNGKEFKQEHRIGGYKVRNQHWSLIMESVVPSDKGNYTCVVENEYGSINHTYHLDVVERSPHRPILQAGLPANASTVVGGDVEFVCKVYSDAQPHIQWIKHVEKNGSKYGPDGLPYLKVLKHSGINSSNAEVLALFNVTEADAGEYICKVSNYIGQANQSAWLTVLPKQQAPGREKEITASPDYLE
T2 sequence (P21802 other isoform, or with tags, fused parts or gaps): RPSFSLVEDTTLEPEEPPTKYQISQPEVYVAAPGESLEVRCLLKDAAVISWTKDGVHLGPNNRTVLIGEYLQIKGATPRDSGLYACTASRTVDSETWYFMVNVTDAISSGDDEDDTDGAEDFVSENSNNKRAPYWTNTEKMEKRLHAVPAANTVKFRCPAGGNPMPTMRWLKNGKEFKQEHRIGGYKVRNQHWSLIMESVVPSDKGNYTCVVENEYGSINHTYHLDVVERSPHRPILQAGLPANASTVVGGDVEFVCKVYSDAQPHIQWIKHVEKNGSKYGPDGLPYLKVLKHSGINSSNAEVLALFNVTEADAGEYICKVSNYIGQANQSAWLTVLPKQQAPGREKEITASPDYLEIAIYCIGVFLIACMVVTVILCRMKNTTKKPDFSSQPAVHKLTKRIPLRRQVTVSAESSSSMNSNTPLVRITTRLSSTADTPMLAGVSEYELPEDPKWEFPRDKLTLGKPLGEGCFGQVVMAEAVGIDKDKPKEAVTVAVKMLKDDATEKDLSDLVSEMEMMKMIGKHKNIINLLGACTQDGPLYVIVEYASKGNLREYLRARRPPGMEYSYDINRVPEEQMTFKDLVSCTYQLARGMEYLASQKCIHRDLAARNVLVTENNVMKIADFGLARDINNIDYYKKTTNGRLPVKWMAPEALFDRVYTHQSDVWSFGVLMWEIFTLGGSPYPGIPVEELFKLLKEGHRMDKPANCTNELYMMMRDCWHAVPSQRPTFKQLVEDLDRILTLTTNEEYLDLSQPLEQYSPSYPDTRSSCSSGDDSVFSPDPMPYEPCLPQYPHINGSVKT
T5 sequence (P21802 other isoform, or with tags, fused parts or gaps S252W S252W): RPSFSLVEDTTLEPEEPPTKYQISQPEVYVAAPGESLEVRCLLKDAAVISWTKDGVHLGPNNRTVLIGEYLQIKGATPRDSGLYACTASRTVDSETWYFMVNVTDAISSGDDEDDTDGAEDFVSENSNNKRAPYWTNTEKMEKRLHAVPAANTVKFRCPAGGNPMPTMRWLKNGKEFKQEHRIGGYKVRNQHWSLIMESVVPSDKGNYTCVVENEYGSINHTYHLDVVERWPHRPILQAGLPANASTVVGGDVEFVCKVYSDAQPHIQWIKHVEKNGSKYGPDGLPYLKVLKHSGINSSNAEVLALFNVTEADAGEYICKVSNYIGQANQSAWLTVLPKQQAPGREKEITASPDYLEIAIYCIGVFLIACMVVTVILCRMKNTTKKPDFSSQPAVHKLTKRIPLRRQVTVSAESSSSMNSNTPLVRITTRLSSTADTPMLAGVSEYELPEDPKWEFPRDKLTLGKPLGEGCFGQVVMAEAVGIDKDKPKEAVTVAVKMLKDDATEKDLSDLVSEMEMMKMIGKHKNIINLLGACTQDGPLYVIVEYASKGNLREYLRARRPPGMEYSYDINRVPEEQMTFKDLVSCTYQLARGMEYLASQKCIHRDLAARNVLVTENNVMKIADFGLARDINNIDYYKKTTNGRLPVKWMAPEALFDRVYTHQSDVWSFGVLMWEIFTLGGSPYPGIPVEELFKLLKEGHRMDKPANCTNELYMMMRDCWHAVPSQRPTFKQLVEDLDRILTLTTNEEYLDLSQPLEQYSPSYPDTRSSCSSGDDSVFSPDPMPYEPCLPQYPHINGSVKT

B1: HuGAL-FR21 (antibody, human IgG1, kappa, V domains shown)
VH: QVQLVQSGAEVKKPGSSVKVSCKASGYIFTTYNVHWVRQAPGQGLEWIGSIYPDNGDTSYNQNFKGRATITADKSTSTAYMELSSLRSEDTAVYYCARGDFAYWGQGTLVTVSS
VL: DIQMTQSPSSLSASVGDRVTITCKASQGVSNDVAWYQQKPGKAPKLLIYSASYRYTGVPSRFSGSGSGTDFTFTISSLQPEDIATYYCQQHSTTPYTFGQGTKLEIKR
notes: Humanized IgG1, kappa; also called humanized GAL-FR21
With B1, the Ka in assay [1] is not below 1e+09 M⁻¹.

B2: GAL-FR21 (antibody, V domains shown)
VH: QVQLQQPGAEVVKPGASVKMSCKASGYIFTTYNVHWVKQTPGQGLEWIGSIYPDNGDTSYNQNFKGKATLTADKSSSTAYIQLSSLTSEDSAVYYCARGDFAYWGQGTLVTVSV
VL: NIVMTQSPKSMSMSVGDRVSITCKASQGVSNDVAWYQKKPGQSPKLLIYSASYRYTGVPDRFTGSGSGTDFTFTISNVQAEDLAVYYCQQHSTTPYTFGGGTKLEIK
notes: Mouse monoclonal antibody from a hybridoma; also called mouse GAL-FR21; ATCC PTA-9586
Consider B2, for which the binding result in assay [2] is on record as “binds”; in assay [3] it was “binds”; in assay [4] it was “binds”; in assay [5], “binds”; in assay [6], “binds”; in assay [7] it was “no binding (tested: 1 µg/50 µl)”.

B3: GAL-FR22 (antibody, V domains shown)
VH: QVQLKQSGPGLVQPSQSLSITCTVSGFSLTSFGVHWVRQSPGKGLEWLGVIWSGGSTDYNADFRSRLSISKDNSKSQIFFKMNSLQPDDTAIYYCANFYYGYDDYVMDYWGQGTSVTVSS
VL: DIQMTQSPSSLSASLGGRVTITCKASQDIKNYIAWYQHKPGKSPRLLIHYTSTLQPGVPSRFSGSGSGRDYSFSISNLEPEDIATYYCLQYDDLYMFGGGTKLDIK
notes: Mouse monoclonal antibody from a hybridoma; also called GAL-FG22; ATCC PTA-9587
On to B3, for which the binding result in assay [2], in assay [3], in assay [4], in assay [5], in assay [6] and in assay [7] was “binds” in each case.

The values are drawn from US8603987 (GALAXY BIOTECH, dated 2013).
